Results on 1 substance are retold here after patent US20040005554A1.

Assay [1] addresses ARP-GFP fusion protein (human ARP, Leu form from pBSSKII ARP.4, fused to EGFP of pEGFP-N2) (human). Description: anti-GFP plate capture, detection with anti-FLAG M2 and anti-mouse IgG-AP; concentrated medium of cotransfection.
Assay [2] has the same target. Description: anti-GFP plate capture, detection with anti-FLAG M2 and anti-mouse IgG-AP; unconcentrated medium of cotransfection.

Chain of FLAG-BRP fusion protein (N-terminal FLAG tag on predicted mature human BRP, secreted through the mouse preprotrypsin signal) (Q86YW7 other isoform, or with tags, fused parts or gaps limits assumed): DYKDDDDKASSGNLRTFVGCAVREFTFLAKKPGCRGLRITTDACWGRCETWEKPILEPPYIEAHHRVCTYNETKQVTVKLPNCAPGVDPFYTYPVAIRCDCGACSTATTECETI

On to “FLAG-BRP fusion protein (N-terminal FLAG tag on predicted mature human BRP, secreted through the mouse preprotrypsin signal) (from UniProt Q86YW7 25-130)”, for which the Abs 405 nm in assay [1] came to 1.41 Abs 405 nm; in assay [2], 0.972 Abs 405 nm.
